Residue numbers refer to the chain shown, from its start. Blank lines part the entries; values can stand above or below the binder they belong to.
Key:
[1] = biological target: P11475 IgM Fab fragment (Fab of the BcR IG of CLL subset no. 2 case P11475) (human); test: ITC; dilution ITC, VP-ITC, 20 °C; 20 mM Tris pH 7.4, 100 mM glycine, 100 mM NaCl; Fab at the maximum achievable concentration (300-400 μM) injected into buffer; dimer to monomers
[2] = biological target: P11475 IgM Fab fragment (Fab of the BcR IG of CLL subset no. 2 case P11475) (human); test: AUC; sedimentation velocity, absorbance detection, 72,756g, 20 °C; CLL240 and wild-type CLL183 at 0.1, 0.2 and 0.4 mg ml^-1, CLL183 mutants and the other Fabs up to 1 mg ml^-1; storage buffer (50 mM Tris pH 7, 100 mM glycine) and PBS; monomer-dimer; koff from simultaneous fit of three …
[3] = biological target: CLL183 Fab (Fab of the BcR IG of CLL subset no. 4 case CLL183) (human); test: AUC; sedimentation equilibrium, 0.1, 0.15 and 0.26 mg ml^-1 in storage buffer, 20 °C, four speeds, global fit with a two-state self-association model; dimer to monomers
[4] = biological target: CLL183 Fab (Fab of the BcR IG of CLL subset no. 4 case CLL183) (human); test: AUC; sedimentation velocity, absorbance detection, 72,756g, 20 °C; CLL240 and wild-type CLL183 at 0.1, 0.2 and 0.4 mg ml^-1, CLL183 mutants and the other Fabs up to 1 mg ml^-1; storage buffer (50 mM Tris pH 7, 100 mM glycine) and PBS; monomer-dimer; koff from simultaneous fit of three …
[5] = biological target: CLL240 Fab (Fab of the BcR IG of CLL subset no. 4 case CLL240) (human); test: AUC; sedimentation equilibrium, 0.1, 0.15 and 0.26 mg ml^-1 in storage buffer, 20 °C, four speeds, global fit with a two-state self-association model; dimer to monomers
[6] = biological target: CLL240 Fab (Fab of the BcR IG of CLL subset no. 4 case CLL240) (human); test: AUC; sedimentation velocity, absorbance detection, 72,756g, 20 °C; CLL240 and wild-type CLL183 at 0.1, 0.2 and 0.4 mg ml^-1, CLL183 mutants and the other Fabs up to 1 mg ml^-1; storage buffer (50 mM Tris pH 7, 100 mM glycine) and PBS; monomer-dimer; koff from simultaneous fit of three …

Kd [1]: 430 µM
dH [1]: -22.6 kJ/mol
koff [2]: > 0.01 s⁻¹
B1: P11475 IgM Fab fragment (Fab of the BcR IG of CLL subset no. 2 case P11475) (Fab, V domains shown)
VH: EVQLVESGGGLVKPGGSLRLSCAASGFTFRSYSMNWVRQAPGKGLEWVSSIISSSSYIYYADSVKGRFTISRDNAKNSLYLQMNSLRAEDTALYYCARDQNAMDVWGQGTTVTVSS
VL: SYELTQPPSVSVAPGKTARITCAGNNIGSKSVHWYQQKPGQAPVLVIYYDSDRPSGIPERFSGSNSGNTATLTISRVEAGDEADYYCQVWDSGSDHPWVFGGGTKLTVL

Kd [3]: 15.6 µM
koff [4]: 1.99e-05 s⁻¹
stoichiometry N [4]: 2
B2: CLL183 Fab (Fab of the BcR IG of CLL subset no. 4 case CLL183) (Fab, V domains shown)
VH: QLQLQQWGAGLLKPSETLSLTCAVYGGSFSGYYWTWIRQSPGKGLEWIGEINHSGSTTYNPSLKSRVTISVDTSKNQFSLKLNSVTAADTAVYYCARGYGDTPTIRRYYYYGMDVWGQGTTVTVSS
VL: DVVMTQSPLSLPVTLGQPASISCRSSQSLVHSDGNTYLNWFQQRPGQSPRRLIYKVSDRDSGVPDRFSGSGSGTDFTLKISRVEAEDVGLYYCMQGTHWPPYTFGQGTKVEIK

Kd [5]: 14 µM
koff [6]: 0.000263 s⁻¹
stoichiometry N [6]: 2
B3: CLL240 Fab (Fab of the BcR IG of CLL subset no. 4 case CLL240) (Fab, V domains shown)
VH: QVQLQQWGAGLLKPSETLSLNCAVYGESFSGYYWSWIRQPPGKGLEWIGEINHSGSTNYNPSLKSRVTISVDTSKNQFSLKLSSVTAADAAIYYCARGYADTPVFRRYYYYGMDVWAKGTTVTVSS
VL: B2 VL with V2I, L90V

Source: article PMC5472768
